The values below come from patent US20250352667A1.

Where a chain is given by its changes, count along the chain named. In names and notes the source's numbering stands.

In experiment [1] the target is KEAP1 (wild-type full-length), His-tagged (human) (UniProt Q14145). Kind of experiment: AlphaScreen; 2.4 nM FLAG-NRF2, 150 nM His-KEAP1; Rep 2; control for I28V.
For experiment [2] the target is unchanged. Kind of experiment: AlphaScreen; 9.6 nM FLAG-NRF2, 150 nM His-KEAP1; Rep 2; control for I28V.
For experiment [3] the target is unchanged. Description: AlphaScreen; 19.2 nM FLAG-NRF2, 150 nM His-KEAP1; Rep 1; control for I28V.
Experiment [4] shares this target. Kind of experiment: AlphaScreen; 76.8 nM FLAG-NRF2, 150 nM His-KEAP1; Rep 1; control for I28V.
The target is the same in experiment [5]. Description: AlphaScreen; 76.8 nM FLAG-NRF2, 150 nM His-KEAP1; Rep 2; control for I28V.
The target is the same in experiment [6]. Description: AlphaScreen; 76.8 nM FLAG-NRF2, 150 nM His-KEAP1; Rep 1; control for I86V.
The target is the same in experiment [7]. Kind of experiment: AlphaScreen; 307.2 nM FLAG-NRF2, 150 nM His-KEAP1; Rep 1; control for I28V.
Experiment [8] has the same target. Kind of experiment: AlphaScreen; 614.4 nM FLAG-NRF2, 150 nM His-KEAP1; Rep 1; control for I28V.
The target is the same in experiment [9]. Description: AlphaScreen; 153.6 nM FLAG-NRF2, 150 nM His-KEAP1; Rep 3; control for I86V.
Experiment [10] shares this target. Kind of experiment: AlphaScreen; 1228.8 nM FLAG-NRF2, 150 nM His-KEAP1; Rep 2; control for I28V.
Experiment [11] shares this target. Description: AlphaScreen; 19.2 nM FLAG-NRF2, 150 nM His-KEAP1; Repeat 2 (same value as in Table 26).
Experiment [12] shares this target. Description: AlphaScreen; 76.8 nM FLAG-NRF2, 150 nM His-KEAP1; signal against NRF2 only; control for I28V.
The target is the same in experiment [13]. Description: AlphaScreen; 38.4 nM FLAG-NRF2, 150 nM His-KEAP1; signal against NRF2 only; control for I86V.
Experiment [14] has the same target. Kind of experiment: AlphaScreen; FLAG-NRF2 wt isoform 1 9.6 nM, His-KEAP1 150 nM; Rep 1; positive control for I86V.
The target is the same in experiment [15]. Kind of experiment: AlphaScreen; FLAG-NRF2 wt isoform 1 2.4 nM, His-KEAP1 150 nM; Rep 1; positive control for Q75R.
The target is the same in experiment [16]. Description: AlphaScreen; FLAG-NRF2 wt isoform 1 19.2 nM, His-KEAP1 150 nM; Rep 2; positive control for Q75R.
Experiment [17] shares this target. Kind of experiment: AlphaScreen; NRF2 wt isoform 1 19.2 nM, KEAP1 150 nM; signal against NRF2-only control; control for Q75R.
The target is the same in experiment [18]. Kind of experiment: AlphaScreen; NRF2 wt isoform 1 38.4 nM, KEAP1 150 nM; signal against NRF2-only control; control for Q75R.
The target is the same in experiment [19]. Description: AlphaScreen; FLAG-NRF2 Q75R 9.6 nM, His-KEAP1 150 nM; Rep 2.
The target is the same in experiment [20]. Kind of experiment: AlphaScreen; mean over 9.6, 19.2 and 38.4 nM NRF2 Q75R, KEAP1 150 nM; relative to wild-type NRF2 isoform 1.
For experiment [21] the target is unchanged. Description: AlphaScreen; 76.8 nM FLAG-NRF2, 150 nM His-KEAP1; Rep 2.
For experiment [22] the target is unchanged. Kind of experiment: AlphaScreen; 614.4 nM FLAG-NRF2, 150 nM His-KEAP1; Rep 1.
For experiment [23] the target is unchanged. Description: AlphaScreen; 38.4 nM FLAG-NRF2, 150 nM His-KEAP1; signal against NRF2 only.
Experiment [24] shares this target. Kind of experiment: AlphaScreen; FLAG-NRF2 I86V 2.4 nM, His-KEAP1 150 nM; Rep 1.
Experiment [25] has the same target. Description: AlphaScreen; FLAG-NRF2 I86V 38.4 nM, His-KEAP1 150 nM; Rep 2.
The target is the same in experiment [26]. Kind of experiment: AlphaScreen; FLAG-NRF2 I86V 1228.8 nM, His-KEAP1 150 nM; Rep 3.
Experiment [27] has the same target. Description: AlphaScreen; NRF2 I86V 9.6 nM, KEAP1 150 nM; signal against NRF2-only control.

Chain of KEAP1 (wild-type full-length), His-tagged (human) (Q14145 2-624 limits assumed): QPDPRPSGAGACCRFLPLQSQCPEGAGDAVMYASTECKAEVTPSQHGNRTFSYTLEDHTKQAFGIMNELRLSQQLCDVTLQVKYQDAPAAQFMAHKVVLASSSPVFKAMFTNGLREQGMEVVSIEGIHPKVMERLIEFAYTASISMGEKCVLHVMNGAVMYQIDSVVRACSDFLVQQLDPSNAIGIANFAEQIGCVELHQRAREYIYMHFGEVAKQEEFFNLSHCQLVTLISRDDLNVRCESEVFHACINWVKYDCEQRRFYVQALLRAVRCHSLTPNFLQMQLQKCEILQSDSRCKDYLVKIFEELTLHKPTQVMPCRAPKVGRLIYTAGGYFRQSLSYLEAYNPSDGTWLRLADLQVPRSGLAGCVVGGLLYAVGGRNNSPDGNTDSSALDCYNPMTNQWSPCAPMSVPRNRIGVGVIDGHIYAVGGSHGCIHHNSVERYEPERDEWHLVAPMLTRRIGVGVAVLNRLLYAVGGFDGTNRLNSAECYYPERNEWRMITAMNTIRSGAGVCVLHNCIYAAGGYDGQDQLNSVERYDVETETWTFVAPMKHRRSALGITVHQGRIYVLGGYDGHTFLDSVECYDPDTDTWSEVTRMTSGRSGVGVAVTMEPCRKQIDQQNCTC

B1: NRF2 isoform 1 (wild-type full-length), FLAG-tagged (protein)
chain: MMDLELPPPGLPSQQDMDLIDILWRQDIDLGVSREVFDFSQRRKEYELEKQKKLEKERQEQLQKEQEKAFFAQLQLDEETGEFLPIQPAQHIQSETSGSANYSQVAHIPKSDALYFDDCMQLLAQTFPFVDDNEVSSATFQSLVPDIPGHIESPVFIATNQAQSPETSVAQVAPVDLDGMQQDIEQVWEELLSIPELQCLNIENDKLVETTMVPSPEAKLTEVDNYHFYSSIPSMEKEVGNCSPHFLNAFEDSFSSILSTEDPNQLTVNSLNSDATVNTDFGDEFYSAFIAEPSISNSMPSPATLSHSLSELLNGPIDVSDLSLCKAFNQNHPESTAEFNDSDSGISLNTSPSVASPEHSVESSSYGDTLLGLSDSEVEELDSAPGSVKQNGPKTPVHSSGDMVQPLSPSQGQSTHVHDAQCENTPEKELPVSPGHRKTPFTKDKHSSRLEAHLTRDELRAKALHIPFPVEKIINLPVVDFNEMMSKEQFNEAQLALIRDIRRRGKNKVAAQNCRKRKLENIVELEQDLDHLKDEKEKLLKEKGENDKSLHLLKKQLSTLYLEVFSMLRDEDGKPYSPSEYSLQQTRDGNVFLVPKSKKPDVKKN
For B1, the A-counts in experiment [1] came out at 628 A-counts; in experiment [2] it was 1640 A-counts; in experiment [3] it was 1980 A-counts; in [4] it was 2000 A-counts; in [5], 1970 A-counts; in experiment [6], 3020 A-counts. Besides, the A-counts was determined as 1850 A-counts in experiment [7]; 1780 A-counts in [8]; 2990 A-counts in experiment [9]; 1520 A-counts in [10]; 2000 A-counts in [11]. The S/N in experiment [12] is 2.7; in experiment [13], 3; in [17] it was 3.4; in experiment [18], 2.8. In addition, the values for the A-counts (NRF2 plus KEAP1) in [14], in experiment [15] and in [16] were 2640 A-counts, 419 A-counts and 1480 A-counts, respectively.

B2: NRF2 isoform 1 (Q75R full-length), FLAG-tagged (protein)
chain: B1 chain with Q75R
Turning to B2, in experiment [19], the A-counts (NRF2 plus KEAP1) amounted to 1090 A-counts. In experiment [20], this molecule gave an Average Binding of 69.8% and an Avg. Reduction in Binding of 30.2%.

B3: NRF2 isoform 1 (I28V full-length), FLAG-tagged (protein)
chain: B1 chain with I28V
As to B3, the A-counts in experiment [21] was 1500 A-counts; in experiment [22], 1220 A-counts. Further, in experiment [23], the S/N was determined as 2.7.

B4: NRF2 isoform 1 (I86V full-length), FLAG-tagged (protein)
chain: B1 chain with I86V
As for B4, the A-counts (NRF2 plus KEAP1) is 1730 A-counts in experiment [24], 2920 A-counts in experiment [25] and 1620 A-counts in experiment [26]. The S/N in experiment [27] came to 3.6.
